For data set [1], the target named is T1, Polθ-h (Polθ helicase domain) (UniProt O75417 1-894). Kind of data set: EMSA; no PARP-1 modification; hyperbolic fit; Imaging Buffer: 40 mM Tris-HCl pH 8.0, 50 mM NaCl, 2 mM MgCl2, 1 mM DTT, 0.2 mg/ml BSA, 1 mM ATP; EMSA at room temperature, single-molecule at 37 C; PARP-1 tethering without BSA; displacement EMSA in 30 mM HEPES pH 8.0, 50 mM NaCl, 1.5 mM MgCl2, 1 mM DTT. Particulars: protein: recombinant; tags: pET19 N-terminal 6xHis-TwinStrep-SUMO; chain copies: 4; label: 5'-32P in EMSA; unlabeled as challenge in tethering assay. On the technique in general: A gel shift assay detects complexes by their altered migration in electrophoresis.
T1 sequence (O75417 1-894): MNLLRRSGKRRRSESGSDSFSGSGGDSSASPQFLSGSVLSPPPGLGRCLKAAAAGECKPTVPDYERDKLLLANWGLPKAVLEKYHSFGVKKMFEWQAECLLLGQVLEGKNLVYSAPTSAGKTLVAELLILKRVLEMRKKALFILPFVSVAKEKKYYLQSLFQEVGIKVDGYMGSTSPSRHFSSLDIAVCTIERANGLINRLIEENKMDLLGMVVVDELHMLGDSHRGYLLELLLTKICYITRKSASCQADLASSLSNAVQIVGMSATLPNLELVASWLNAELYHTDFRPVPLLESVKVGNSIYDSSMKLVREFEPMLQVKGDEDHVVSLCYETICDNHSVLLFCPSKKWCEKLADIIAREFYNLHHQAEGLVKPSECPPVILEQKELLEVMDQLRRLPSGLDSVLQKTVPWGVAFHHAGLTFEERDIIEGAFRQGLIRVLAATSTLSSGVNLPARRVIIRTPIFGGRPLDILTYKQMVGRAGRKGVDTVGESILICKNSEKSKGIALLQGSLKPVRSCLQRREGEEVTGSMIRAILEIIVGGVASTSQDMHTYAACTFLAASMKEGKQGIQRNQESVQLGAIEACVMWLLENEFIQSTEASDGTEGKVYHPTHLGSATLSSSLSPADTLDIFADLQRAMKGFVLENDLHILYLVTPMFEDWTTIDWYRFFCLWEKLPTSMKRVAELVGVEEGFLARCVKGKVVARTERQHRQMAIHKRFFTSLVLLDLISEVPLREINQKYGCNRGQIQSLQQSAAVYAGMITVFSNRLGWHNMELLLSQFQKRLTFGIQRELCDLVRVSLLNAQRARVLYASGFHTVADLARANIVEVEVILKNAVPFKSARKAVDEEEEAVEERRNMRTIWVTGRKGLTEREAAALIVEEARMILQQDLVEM

Data set [2] addresses T1, Polθ-h (Polθ helicase domain). Kind of data set: single-molecule ssDNA curtain oligo capture; captured in trans by Polθ-h on RPA-GFP-coated ssDNA; no capture without Polθ-h; Imaging Buffer: 40 mM Tris-HCl pH 8.0, 50 mM NaCl, 2 mM MgCl2, 1 mM DTT, 0.2 mg/ml BSA, 1 mM ATP; EMSA at room temperature, single-molecule at 37 C; PARP-1 tethering without BSA; displacement EMSA in 30 mM HEPES pH 8.0, 50 mM NaCl, 1.5 mM MgCl2, 1 mM DTT. Particulars: protein: recombinant; tags: pET19 N-terminal 6xHis-TwinStrep-SUMO; chain copies: 4; label: 5'-Atto647N.

The Kd is the constant that tells how readily two partners part at equilibrium.

Regarding TTTTTTTTTTTTTTTTTTTTTTTTTTTTTTTTTTTTTTTTTTTTTTTTTT (ssDNA) [dT50 (Poly-T50)], the equilibrium dissociation constant (Kd) in data set [1] came to 39 ± 12 nM.

For TCCTCTTTTTCTTTTTTTCTTTTCTTCC (ssDNA) [Noncomp-647N], the binding result in data set [2] is recorded as “binds”.
